We go through one substance from publication doi:10.1101/749432.

In this assay the target is endothelial protein C receptor (EPCR), residues 16 to 210, biotinylated on the BAP tag (human) (UniProt Q9UNN8). The assay can be described thus: SPR. (In general: In SPR one partner is held on a chip, and binding of the other changes the refractive index at the surface.)
Chain of endothelial protein C receptor (EPCR), residues 16 to 210, biotinylated on the BAP tag (human) (Q9UNN8 16-210): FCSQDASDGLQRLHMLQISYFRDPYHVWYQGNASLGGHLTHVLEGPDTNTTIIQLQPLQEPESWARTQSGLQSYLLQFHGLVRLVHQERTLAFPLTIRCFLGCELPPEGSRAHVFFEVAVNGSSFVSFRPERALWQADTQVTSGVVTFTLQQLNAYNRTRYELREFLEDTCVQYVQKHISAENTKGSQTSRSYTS

Usually Kd stands for the constant that tells how readily two partners part at equilibrium. A higher Kd goes with a looser complex. In turn, “HB3var03 CIDRα1.4 domain D576A K642A double mutant (domain or fragment)” showed a Kd of 220 nM.
